Assay in all cases: pulldown
What all share (conditions): 20 nM protein, 1.5 uM RNA pool; 20 mM HEPES pH 7.8, 70 mM KCl, 10 mM NaCl, 10% glycerol, 2 mM DTT, 0.1 ug/uL BSA; 30 min, 4 C

Series [1] deals with T1, PK23225.1 P17S (Cannabis sativa) (UniProt A0A7J6EWR7).
T1 sequence: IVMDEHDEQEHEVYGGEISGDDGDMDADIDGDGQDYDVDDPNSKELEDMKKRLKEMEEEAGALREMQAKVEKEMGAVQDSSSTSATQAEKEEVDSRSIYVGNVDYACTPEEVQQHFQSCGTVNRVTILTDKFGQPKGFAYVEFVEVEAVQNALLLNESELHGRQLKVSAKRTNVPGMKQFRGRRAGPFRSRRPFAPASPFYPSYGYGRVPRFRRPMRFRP

Series [2] has as its target T2, PFI1175c (Plasmodium falciparum) (UniProt Q8I2R8).
T2 sequence: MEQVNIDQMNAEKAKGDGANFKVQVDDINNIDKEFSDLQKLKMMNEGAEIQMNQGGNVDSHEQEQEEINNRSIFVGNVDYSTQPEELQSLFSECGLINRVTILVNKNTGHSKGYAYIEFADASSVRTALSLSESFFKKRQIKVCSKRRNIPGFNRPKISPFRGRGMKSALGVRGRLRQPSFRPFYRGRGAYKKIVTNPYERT

Series [3] concerns the target T3, CBG15837 R479I (Caenorhabditis briggsae) (UniProt A8XMX3).
T3 sequence: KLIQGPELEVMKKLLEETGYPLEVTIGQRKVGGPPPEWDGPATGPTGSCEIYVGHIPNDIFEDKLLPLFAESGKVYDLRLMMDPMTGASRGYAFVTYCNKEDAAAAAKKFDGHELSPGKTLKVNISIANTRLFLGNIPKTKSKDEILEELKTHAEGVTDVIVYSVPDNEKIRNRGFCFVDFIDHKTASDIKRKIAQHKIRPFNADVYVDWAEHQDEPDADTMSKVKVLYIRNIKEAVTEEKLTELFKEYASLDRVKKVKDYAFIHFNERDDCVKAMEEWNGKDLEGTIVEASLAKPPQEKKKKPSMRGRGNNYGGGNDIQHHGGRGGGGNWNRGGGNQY

Series [4] concerns T4, PK15111.1 (Cannabis sativa).
T4 sequence: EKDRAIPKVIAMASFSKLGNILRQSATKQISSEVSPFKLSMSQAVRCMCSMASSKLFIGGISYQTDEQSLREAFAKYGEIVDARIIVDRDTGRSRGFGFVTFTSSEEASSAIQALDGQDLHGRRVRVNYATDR

Series [5] addresses T5, PK04894.1 Y197N (Cannabis sativa) (UniProt A0A803PQ48).
T5 sequence: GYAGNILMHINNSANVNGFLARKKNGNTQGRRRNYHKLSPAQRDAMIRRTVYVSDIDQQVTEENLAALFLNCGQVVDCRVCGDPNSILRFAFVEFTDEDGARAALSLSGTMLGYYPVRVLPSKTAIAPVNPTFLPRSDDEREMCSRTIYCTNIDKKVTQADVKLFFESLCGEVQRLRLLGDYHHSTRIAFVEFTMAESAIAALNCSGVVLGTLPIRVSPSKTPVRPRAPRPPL

The subject of series [6] is T6, PK23842.1 (Cannabis sativa).
T6 sequence: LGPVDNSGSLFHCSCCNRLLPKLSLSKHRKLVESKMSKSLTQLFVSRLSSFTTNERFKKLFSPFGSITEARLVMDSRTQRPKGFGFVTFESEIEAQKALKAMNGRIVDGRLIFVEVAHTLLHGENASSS

Series [7] deals with T7, PK27686.1 K290R (Cannabis sativa) (UniProt A0A7J6ICA3).
T7 sequence: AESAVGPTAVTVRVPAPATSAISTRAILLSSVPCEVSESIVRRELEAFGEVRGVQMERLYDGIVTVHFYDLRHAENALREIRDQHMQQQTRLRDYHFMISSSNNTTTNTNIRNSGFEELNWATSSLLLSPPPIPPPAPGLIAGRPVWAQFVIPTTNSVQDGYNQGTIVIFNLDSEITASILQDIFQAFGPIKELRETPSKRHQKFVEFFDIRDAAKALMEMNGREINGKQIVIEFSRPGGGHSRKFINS

In series [8] the target is T8, SCL30 (Arabidopsis thaliana) (UniProt Q8L3X8).
T8 sequence: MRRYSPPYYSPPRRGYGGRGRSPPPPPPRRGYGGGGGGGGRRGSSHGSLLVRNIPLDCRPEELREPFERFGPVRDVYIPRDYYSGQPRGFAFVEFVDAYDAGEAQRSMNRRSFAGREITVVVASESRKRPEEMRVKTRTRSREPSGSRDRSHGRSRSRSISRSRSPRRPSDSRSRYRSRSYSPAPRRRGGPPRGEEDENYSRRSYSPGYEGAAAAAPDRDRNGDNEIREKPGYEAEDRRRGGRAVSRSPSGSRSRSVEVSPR

For series [9], the target named is T9, PK20300.1 (Cannabis sativa) (UniProt A0A803QWA0).
T9 sequence: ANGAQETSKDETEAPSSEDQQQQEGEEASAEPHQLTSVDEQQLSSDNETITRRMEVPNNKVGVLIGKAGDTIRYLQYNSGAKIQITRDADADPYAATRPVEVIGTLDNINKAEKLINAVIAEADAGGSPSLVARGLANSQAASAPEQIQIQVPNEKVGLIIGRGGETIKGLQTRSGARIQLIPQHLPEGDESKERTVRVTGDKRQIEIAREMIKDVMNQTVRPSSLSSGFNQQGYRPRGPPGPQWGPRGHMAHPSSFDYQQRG

Series [10] deals with T10, PK27672.1 (Cannabis sativa) (UniProt A0A7J6HI09).
T10 sequence: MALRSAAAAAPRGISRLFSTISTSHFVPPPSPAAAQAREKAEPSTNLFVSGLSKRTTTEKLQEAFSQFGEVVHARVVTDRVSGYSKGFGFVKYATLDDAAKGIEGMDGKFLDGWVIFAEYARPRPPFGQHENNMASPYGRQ

AAAAAGA [RNAcompete motif RNCMPT00370] returned a binding signal (z-score (mean of top ten 7-mers)) in series [1] of 12.
Take AAAAAGA [RNAcompete motif RNCMPT00380]: in [2], the binding signal (z-score (mean of top ten 7-mers)) was determined as 9.25.
AAAAAUUU [RNAcompete motif RNCMPT00344]: the binding signal (z-score (mean of top ten 7-mers)) in [3] worked out at 9.1.
Regarding AAGUAGA [RNAcompete motif RNCMPT00368], in [4], the binding signal (z-score (mean of top ten 7-mers)) stood at 6.73.
For AAUAAG [RNAcompete motif RNCMPT00346], in series [5], the binding signal (z-score (mean of top ten 7-mers)) amounted to 15.1.
With AAUCCA [RNAcompete motif RNCMPT00372], the binding signal (z-score (mean of top ten 7-mers)) in series [6] worked out at 6.16.
On to AAUUUU [RNAcompete motif RNCMPT00349], for which, in series [7], the binding signal (z-score (mean of top ten 7-mers)) was 14.6.
On to AGAAGA [RNAcompete motif RNCMPT00382], for which the binding signal (z-score (mean of top ten 7-mers)) in series [8] stood at 7.94.
In series [9], AGCAUGA [RNAcompete motif RNCMPT00360] displayed a binding signal (z-score (mean of top ten 7-mers)) of 11.4.
With AGUACA [RNAcompete motif RNCMPT00342], in [10], the binding signal (z-score (mean of top ten 7-mers)) worked out at 9.79.
